Reference: publication PMC2253824

Target: TTC4, endogenous in Hela cells (human (endogenous in Hela)) (UniProt O95801)
Assay: co-IP; SDS-PAGE of the anti-TTC4 immune pellet stained with colloidal coomassie blue; data not shown

TTC4, endogenous in Hela cells (human (endogenous in Hela)), sequence (O95801 whole entry): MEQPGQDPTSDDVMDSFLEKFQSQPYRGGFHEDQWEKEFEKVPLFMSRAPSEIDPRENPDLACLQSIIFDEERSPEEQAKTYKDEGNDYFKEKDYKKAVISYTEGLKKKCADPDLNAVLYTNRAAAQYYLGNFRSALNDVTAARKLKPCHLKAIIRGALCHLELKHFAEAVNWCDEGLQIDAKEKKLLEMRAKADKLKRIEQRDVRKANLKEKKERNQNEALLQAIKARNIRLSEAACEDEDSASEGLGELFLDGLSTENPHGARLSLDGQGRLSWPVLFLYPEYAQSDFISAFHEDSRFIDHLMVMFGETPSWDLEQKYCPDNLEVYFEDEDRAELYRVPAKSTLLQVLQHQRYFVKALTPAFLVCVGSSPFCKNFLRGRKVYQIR
HSP70, endogenous in Hela cells, sequence (P11142 whole entry): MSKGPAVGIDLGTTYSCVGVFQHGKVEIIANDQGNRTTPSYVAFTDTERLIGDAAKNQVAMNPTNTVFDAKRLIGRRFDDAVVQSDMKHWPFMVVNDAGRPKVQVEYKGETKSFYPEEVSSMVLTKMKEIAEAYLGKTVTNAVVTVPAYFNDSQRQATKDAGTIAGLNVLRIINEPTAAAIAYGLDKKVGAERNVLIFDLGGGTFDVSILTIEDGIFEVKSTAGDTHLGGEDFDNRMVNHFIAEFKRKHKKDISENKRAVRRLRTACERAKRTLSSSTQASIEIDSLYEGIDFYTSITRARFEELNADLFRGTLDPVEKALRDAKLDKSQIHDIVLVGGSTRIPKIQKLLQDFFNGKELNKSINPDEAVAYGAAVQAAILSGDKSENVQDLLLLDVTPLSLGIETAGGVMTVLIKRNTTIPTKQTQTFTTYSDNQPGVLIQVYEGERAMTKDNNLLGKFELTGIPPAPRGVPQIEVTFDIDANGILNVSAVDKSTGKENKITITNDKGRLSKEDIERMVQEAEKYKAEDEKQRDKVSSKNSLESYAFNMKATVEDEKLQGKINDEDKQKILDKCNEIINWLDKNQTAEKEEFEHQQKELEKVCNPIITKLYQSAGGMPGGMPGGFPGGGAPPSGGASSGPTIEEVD

level in the immune pellet (colloidal coomassie): 20%
Substance: HSP70, endogenous in Hela cells (from UniProt P11142 1-646) (natural protein)
